Columns and labels:
[1] = molecular target: T1, cancer-associated structure and normal tissue-associated structure of MUC1 (Homo sapiens, UniProt P15941); experiment: Sugar chain specificity, overall statements from competitive ELISA; type: binding
T1 construct: Synthesis of MUC1 Tn20-mer Glycopeptide; made in house; host or cells: chemical solid-phase synthesis, partly with enzymatic sugar extension
Experimental: (§1) Such specificity can be expressed by a difference in cross reactivity. The cross reactivity is obtained by a calculation equation of (IC50 for cancer-associated structure 2,3ST/IC50 for sugar chain structure to be compared)×100(%). As used herein, inclusion of specificity refers to a difference of 2 fold or more.
(§2) Ten days after cell fusion, screening of a specific antibody-producing cell was performed. ELISA was used in screening is as follows. To each well of a 384-well microtiter plate (manufactured by Nunc) 35 μl of a Tris buffer (50 mM Tris-HCl, pH 7.5) containing 0.35 μg of an anti-mouse IgG antibody (manufactured by Shibayagi Co., Ltd.) was added to immobilize the antibody at 4° C. for 16 hours. After these wells were washed with 90 μl of a washing solution (physiological saline containing 0.01% Tween 20) once, 200 μl of BLOCK ACE (manufactured by Dainippon Sumitomo Pharma Co., Ltd.) was added, and this was allowed to stand at room temperature for 2 hours for blocking (an anti-mouse IgG antibody solid-phased plate). After each well was washed with 90 μl of a washing solution once, 10 μl of a hybridoma culture supernatant, 10 μl of a buffer A (50 mM Tris buffer containing 0.5% bovine serum albumin, 0.01% Tween 80, 0.05% Proclin 150, and 0.15 M. NaCl, pH 7.4), and 10 μl of a buffer A containing 0.01 ng of Biotin-2,3-ST(DT*R)-20 (Compound No. 16 of Table 1) and 2 ng of Streptavidin-HRP (manufactured by PIERCE) were added to perform a reaction at 4° C. for 16 hours. Then, after each well was washed with 90 μl of a washing solution three times, 25 μl of TMB+-Substrate-Chromogen (manufactured by DAKO) was added to develop a color at room temperature for 30 minutes, 25 μl of 0.05 M sulfuric acid was added to stop the reaction, and absorbance was measured at 450 nm. […] Using a mouse monoclonal antibody isotyping ELISA kit (manufactured by BD Bioscience), a subclass of the antibody was determined and, as a result, an isotype of 1B2 was IgG2a.
(§3) Fifteen (15) μl of a buffer A containing a MUC1 antibody was added to an anti-mouse IgG antibody solid-phased plate and the reaction was allowed to proceed at room temperature for 3 hours. […] Then, after each well was washed with 90 μl of a washing solution three times, 15 μl of TMB+-Substrate-Chromogen (manufactured by DAKO) was added to develop a color at room temperature for 30 minutes, 15 μl of 0.05 M sulfuric acid was added to stop the reaction, and absorbance at 450 nm was measured.

[2] = tested on: human breast cancer cell strain T-47D; experiment: Binding of antibody to cancer cell with FACS; type: cell-based
Experimental: (§4) Whether the MUC1 protein expressed on a surface of a cancer cell membrane and the 1B2 antibody bound thereto was investigated by FACS. A human breast cancer cell strain T-47D (ATCC, HTB-133) and a human mammary gland epithelial cell 184A1 (ATCC, CRL-8798) which had been trypsinized with Trypsin (manufactured by Invitrogen) were washed once with a FACS buffer (PBS containing 5% FCS, 0.05% sodium azide), and suspended in 100 μl of a FACS buffer containing 10 μg/ml 1B2 antibody and the reaction was allowed to proceed at room temperature for 2 hours. The resultant reaction product was washed with a FACS buffer two times, and suspended in 200 μl of FITC-Goat Anti-Mouse IgG (manufactured by ZYMED), and the reaction was allowed to proceed at room temperature for 1 hour. After washing with a FACS buffer two times, analysis was performed by FACSAria (manufactured by BD). As a result, in T-47D, the 1B2 antibody greatly shifted the fluorescent signal of FACS (about 300-fold) as compared with a control mouse IgG2a antibody (manufactured by SIGMA-ALDRICH), while in 184A, fluorescent shift by 1B2 was scarcely seen (about 2-fold).

[3] = tested on: human breast cancer tissue; experiment: Immunological tissue staining; settings: formalin-fixed, paraffin-embedded breast cancer tissue
Text: (§5) Immunological tissue staining of the 1B2 antibody to a piece of a human breast cancer tissue and a normal tissue around a breast cancer (BioCahin) which had been formalin-fixed and paraffin-embedded was implemented using the Vectastain elite ABC kit (manufactured by Vector Laboratories) and DAB (manufactured by Roche) according to the attached manual.

[4] = molecular target: T2, 2,3-ST(VT*S)-20 (Compound No. 12) (Homo sapiens, UniProt P15941); experiment: Sugar chain specificity, competitive ELISA against Biotin-Tn(DT*R)-100; type: binding; settings: glycopeptide 2,3ST(VT*S) (Compound No. 12)
T2 construct: Synthesis of MUC1 Tn20-mer Glycopeptide; made in house; host or cells: chemical solid-phase synthesis with enzymatic sialylation
Experimental: as §1, §2, §3

[5] = molecular target: T3, C6(DT*R)-20 (Compound No. 9) (Homo sapiens, UniProt P15941); experiment: as above; type: binding; settings: glycopeptide C6 (Compound No. 9)
T3 construct: Synthesis of MUC1 Tn20-mer Glycopeptide; made in house; host or cells: chemical solid-phase synthesis
Experimental: as §1, §2, §3

[6] = molecular target: T4, 2,3-ST(DT*R)-20 (Compound No. 2) (Homo sapiens, UniProt P15941); experiment: as above; type: binding; settings: glycopeptide 2,3-ST (Compound No. 2), reference = 100%
T4 construct: Synthesis of MUC1 Tn20-mer Glycopeptide; made in house; host or cells: chemical solid-phase synthesis, then enzymatic sialylation
Experimental: as §1, §2, §3

[7] = molecular target: T5, Tn(DT*R)-20 (Compound No. 3) (Homo sapiens, UniProt P15941); experiment: as above; type: binding; settings: glycopeptide Tn (Compound No. 3)
T5 construct: Synthesis of MUC1 Tn20-mer Glycopeptide; made in house; host or cells: chemical solid-phase synthesis
Experimental: as §1, §2, §3

[8] = molecular target: T6, STn(DT*R)-20 (Compound No. 4) (Homo sapiens, UniProt P15941); experiment: as above; type: binding; settings: glycopeptide STn (Compound No. 4)
T6 construct: Synthesis of MUC1 Tn20-mer Glycopeptide; made in house; host or cells: chemical solid-phase synthesis
Experimental: as §1, §2, §3

[9] = molecular target: T7, 2,3ST6G(DT*R)-20 (Compound No. 6) (Homo sapiens, UniProt P15941); experiment: as above; type: binding; settings: glycopeptide 2,3ST6G (Compound No. 6)
T7 construct: Synthesis of MUC1 Tn20-mer Glycopeptide; made in house; host or cells: chemical solid-phase synthesis (Compound 5), then enzymatic sialylation
Experimental: as §1, §2, §3

[10] = tested on: human mammary gland epithelial cell 184A1; experiment: Binding of antibody to cell with FACS; type: cell-based
Experimental: as §4

[11] = tested on: normal tissue around a breast cancer; experiment: Immunological tissue staining; design: species or system human; settings: formalin-fixed, paraffin-embedded normal tissue around the breast cancer
Text: as §5

T1 sequence (P15941 136-155): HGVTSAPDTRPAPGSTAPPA

B1: 1B2: mouse monoclonal anti-MUC1 antibody, isotype IgG2a, clone from immunization with 2,3-ST(DT*R)-20 conjugated to BSA (antibody, V domains shown)
VH: MEWIWIFLFILSGTAGVQSQVQLQQSGAELARPGASVKLSCKASGYTFTNYGLSWVKQRTGQGLEWIGENHPGSGIIYHNEKFRGKATLTADKSSSTAYVQLSSLTSEDSAVYFCARSSGTRGFAYWGQGTLVTVSA
VL: MKLPVRLLVLMFWIPASSSDVLMTQTPLSLPVSLGDQASISCRSSQSIVHSNGNTYLEWYLQKPGQSPKLLIYKVSNRFSGVPDRFSGSGSGTDFTLKISRVEAEDLGVYYCFQGSHGPWTFGGGTKLEIKRA
modifications: Antibody 1B2 VH sequence; Antibody 1B2 VL sequence
For B1, the “IC50 for a cancer-associated structure” value [1] was at most 100 nM, the “cross reactivity for the normal tissue-associated structure, letting 2,3ST to be 100%” value [1] was at most 1% and the “specificity for a cancer-associated structure as compared with that for a normal tissue-associated structure” value [1] was “at least 100 fold”. The “cross reactivity with a sugar chain structure highly expressed in normal cells” value ([1]; 2,3ST6L(DT*R)-20, 2,3-ST6SL(DT*R)-20) was “low cross reactivity”, the “affinity for a sugar chain structure highly expressed in cancer cells” value ([1]; T(DT*R)-20, 2,3-ST(DT*R)-20, Tn(DT*R)-20) was “high affinity” and the “reaction with breast cancer cell (FACS)” value [2] was “strongly reacts”. For the same molecule, the “shift of fluorescent signal of FACS as compared with control mouse IgG2a antibody” value ([2]; 10 μg/ml antibody) was “about 300 fold”, the stained image [3] was “recognized” and the “Cross reactivity letting 2,3-ST to be 100%” value [4] was under 0.030%. The “Cross reactivity letting 2,3-ST to be 100%” value [5] was 0.75%, the “Cross reactivity letting 2,3-ST to be 100%” value [6] was 100% and the “Cross reactivity letting 2,3-ST to be 100%” value [7] was 81%. The “Cross reactivity letting 2,3-ST to be 100%” value [8] was 0.36%, the “Cross reactivity letting 2,3-ST to be 100%” value [9] was 0.061% and the “reaction with mammary gland epithelial cell (FACS)” value ([10]; 184A1) was “hardly reacts”. The “shift of fluorescent signal of FACS as compared with control mouse IgG2a antibody” value ([10]; 184A1, 10 μg/ml antibody) was “about 2 fold” and the stained image [11] was “scarcely recognized”.
